{"source": "paper PMC5863767", "about": "“Mps1 Phosphorylates Its N-Terminal Extension to Relieve Autoinhibition and Activate the Spindle Assembly Checkpoint” (Current Biology, 2018)", "proteins": {"B1": {"name": "GST-Mps1-WT (enzyme, human, UniProt P33981 1-857, looked up)", "chain": "MESEDLSGRELTIDSIMNKVRDIKNKFKNEDLTDELSLNKISADTTDNSGTVNQIMMMANNPEDWLSLLLKLEKNSVPLSDALLNKLIGRYSQAIEALPPDKYGQNESFARIQVRFAELKAIQEPDDARDYFQMARANCKKFAFVHISFAQFELSQGNVKKSKQLLQKAVERGAVPLEMLEIALRNLNLQKKQLLSEEEKKNLSASTVLTAQESFSGSLGHLQNRNNSCDSRGQTTKARFLYGENMPPQDAEIGYRNSLRQTNKTKQSCPFGRVPVNLLNSPDCDVKTDDSVVPCFMKRQTSRSECRDLVVPGSKPSGNDSCELRNLKSVQNSHFKEPLVSDEKSSELIITDSITLKNKTESSLLAKLEETKEYQEPEVPESNQKQWQSKRKSECINQNPAASSNHWQIPELARKVNTEQKHTTFEQPVFSVSKQSPPISTSKWFDPKSICKTPSSNTLDDYMSCFRTPVVKNDFPPACQLSTPYGQPACFQQQQHQILATPLQNLQVLASSSANECISVKGRIYSILKQIGSGGSSKVFQVLNEKKQIYAIKYVNLEEADNQTLDSYRNEIAYLNKLQQHSDKIIRLYDYEITDQYIYMVMECGNIDLNSWLKKKKSIDPWERKSYWKNMLEAVHTIHQHGIVHSDLKPANFLIVDGMLKLIDFGIANQMQPDTTSVVKDSQVGTVNYMPPEAIKDMSSSRENGKSKSKISPKSDVWSLGCILYYMTYGKTPFQQIINQISKLHAIIDPNHEIEFPDIPEKDLQDVLKCCLKRDPKQRISIPELLAHPYVQIQTHPVNQMAKGTTEEMKYVLGQLVGLNSPNSILKAAKTLYEHYSGGESHNSSSSKTFEKKRGKK", "notes": "Mps1 kinase, human, wild type, full-length polypeptide; also called active Mps1; source: baculovirus-infected Sf9 cells, purified (glutathione-agarose, eluted with glutathione)"}, "B2": {"name": "GST-Mps1-KD (enzyme, human, UniProt P33981 1-857, looked up)", "chain": "B1 chain with D664A", "notes": "Mps1 kinase, human, kinase-dead, full-length polypeptide; also called kinase-dead (D664A); source: baculovirus-infected Sf9 cells, purified (glutathione-agarose, eluted with glutathione)"}}, "molecular_target": "the molecule itself", "test": "cross-linking; BS3 cross-linking of purified GST-Mps1 (10:1 protein:BS3, 2 h on ice; 50 mM HEPES pH 7.5, 250 mM KCl, 0.05% NP-40, 1 mM DTT), NATIVE-PAGE, bands of cross-linked dimers excised, cross-linked peptides identified by mass spectrometry", "note": "Where a chain is given by its changes, count along the chain named. Names and notes keep the numbering of the source."}
{"protein": "B1", "values": [{"measurement": "binding result", "value": "binds"}]}
{"protein": "B2", "values": [{"measurement": "binding result", "value": "binds"}]}
